Patent US20040172681

Tested on: FasA from Brevibacterium ammoniagenes (multifunctional fatty acid synthase)
Sequence (chain, as listed by the source): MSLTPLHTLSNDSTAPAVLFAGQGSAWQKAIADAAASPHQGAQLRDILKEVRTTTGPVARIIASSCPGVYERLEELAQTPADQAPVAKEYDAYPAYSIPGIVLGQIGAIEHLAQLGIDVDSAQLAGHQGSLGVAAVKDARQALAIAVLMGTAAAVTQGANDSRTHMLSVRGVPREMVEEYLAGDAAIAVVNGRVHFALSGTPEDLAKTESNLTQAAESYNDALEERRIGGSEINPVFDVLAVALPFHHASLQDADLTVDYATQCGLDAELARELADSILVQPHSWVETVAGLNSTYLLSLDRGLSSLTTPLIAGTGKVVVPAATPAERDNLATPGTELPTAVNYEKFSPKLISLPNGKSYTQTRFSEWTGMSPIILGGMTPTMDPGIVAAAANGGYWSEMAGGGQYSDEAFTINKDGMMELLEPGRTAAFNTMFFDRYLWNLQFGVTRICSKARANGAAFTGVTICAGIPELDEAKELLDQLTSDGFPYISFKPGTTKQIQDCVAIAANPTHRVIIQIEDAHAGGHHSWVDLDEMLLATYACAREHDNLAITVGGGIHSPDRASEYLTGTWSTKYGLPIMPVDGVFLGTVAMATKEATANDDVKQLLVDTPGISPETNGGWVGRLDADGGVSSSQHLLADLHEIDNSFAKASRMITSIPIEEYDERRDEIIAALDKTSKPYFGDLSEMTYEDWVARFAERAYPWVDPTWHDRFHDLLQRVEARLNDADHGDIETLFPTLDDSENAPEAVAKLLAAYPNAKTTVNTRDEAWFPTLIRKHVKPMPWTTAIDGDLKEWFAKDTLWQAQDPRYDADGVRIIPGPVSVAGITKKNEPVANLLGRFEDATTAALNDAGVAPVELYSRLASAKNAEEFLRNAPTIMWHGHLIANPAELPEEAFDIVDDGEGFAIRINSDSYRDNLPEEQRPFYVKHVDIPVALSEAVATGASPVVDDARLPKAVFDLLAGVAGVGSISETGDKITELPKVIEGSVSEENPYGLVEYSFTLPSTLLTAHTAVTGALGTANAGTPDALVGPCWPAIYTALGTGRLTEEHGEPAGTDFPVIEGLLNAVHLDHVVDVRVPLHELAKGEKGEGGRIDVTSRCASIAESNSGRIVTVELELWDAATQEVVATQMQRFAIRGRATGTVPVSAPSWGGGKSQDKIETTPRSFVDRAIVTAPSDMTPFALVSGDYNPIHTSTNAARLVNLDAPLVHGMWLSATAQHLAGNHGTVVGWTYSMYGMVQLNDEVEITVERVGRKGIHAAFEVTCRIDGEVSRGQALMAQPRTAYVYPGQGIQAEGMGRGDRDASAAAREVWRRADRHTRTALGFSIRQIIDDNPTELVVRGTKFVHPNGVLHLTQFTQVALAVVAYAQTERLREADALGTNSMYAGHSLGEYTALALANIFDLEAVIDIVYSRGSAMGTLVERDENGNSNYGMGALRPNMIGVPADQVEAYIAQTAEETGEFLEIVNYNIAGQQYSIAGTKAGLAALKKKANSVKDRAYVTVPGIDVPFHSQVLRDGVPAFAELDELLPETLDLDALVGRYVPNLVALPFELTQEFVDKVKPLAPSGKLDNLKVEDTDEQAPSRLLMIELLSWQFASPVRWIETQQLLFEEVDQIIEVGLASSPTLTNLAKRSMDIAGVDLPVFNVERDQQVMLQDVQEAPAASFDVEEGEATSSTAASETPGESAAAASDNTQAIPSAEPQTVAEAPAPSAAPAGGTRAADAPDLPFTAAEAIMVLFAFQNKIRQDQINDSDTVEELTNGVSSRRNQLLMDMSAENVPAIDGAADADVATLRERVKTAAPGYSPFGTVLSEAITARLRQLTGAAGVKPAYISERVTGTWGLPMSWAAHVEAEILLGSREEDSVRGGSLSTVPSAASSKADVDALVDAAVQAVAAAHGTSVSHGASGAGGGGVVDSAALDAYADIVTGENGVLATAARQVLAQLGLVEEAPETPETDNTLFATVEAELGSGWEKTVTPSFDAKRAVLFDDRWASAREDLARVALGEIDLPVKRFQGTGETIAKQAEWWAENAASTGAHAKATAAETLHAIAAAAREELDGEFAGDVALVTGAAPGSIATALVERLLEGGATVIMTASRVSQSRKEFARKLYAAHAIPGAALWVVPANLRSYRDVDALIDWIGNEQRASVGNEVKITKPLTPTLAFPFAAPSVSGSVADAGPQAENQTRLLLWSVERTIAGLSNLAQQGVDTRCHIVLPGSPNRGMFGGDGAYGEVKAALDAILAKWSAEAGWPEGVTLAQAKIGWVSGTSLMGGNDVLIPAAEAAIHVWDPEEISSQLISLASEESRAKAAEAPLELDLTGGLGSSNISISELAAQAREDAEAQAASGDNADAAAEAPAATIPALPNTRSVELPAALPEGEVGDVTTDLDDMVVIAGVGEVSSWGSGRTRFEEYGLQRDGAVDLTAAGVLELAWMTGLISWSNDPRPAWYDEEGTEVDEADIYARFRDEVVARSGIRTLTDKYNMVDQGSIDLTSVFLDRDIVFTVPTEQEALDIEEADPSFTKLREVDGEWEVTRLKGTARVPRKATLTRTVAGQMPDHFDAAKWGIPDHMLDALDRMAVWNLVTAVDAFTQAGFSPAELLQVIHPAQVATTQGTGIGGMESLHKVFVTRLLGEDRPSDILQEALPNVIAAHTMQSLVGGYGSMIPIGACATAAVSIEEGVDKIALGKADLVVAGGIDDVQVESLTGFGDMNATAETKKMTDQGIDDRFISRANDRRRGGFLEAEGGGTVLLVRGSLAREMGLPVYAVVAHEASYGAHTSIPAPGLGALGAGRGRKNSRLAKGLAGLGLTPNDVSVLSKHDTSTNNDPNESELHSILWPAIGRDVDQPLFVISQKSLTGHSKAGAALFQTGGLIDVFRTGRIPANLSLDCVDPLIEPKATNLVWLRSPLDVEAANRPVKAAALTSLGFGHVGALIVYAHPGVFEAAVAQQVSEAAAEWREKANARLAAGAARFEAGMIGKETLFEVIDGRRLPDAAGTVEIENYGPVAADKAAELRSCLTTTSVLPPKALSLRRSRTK

B1: phosphopantetheine:protein transferase (PPT1) enzyme from B. ammoniagenes, expressed in E. coli as a lacZ fusion protein (enzyme, part only; not given: N-terminal lacZ fusion residues)
chain, part: MLDNREAMTVGVDLVHIPGFAEQLSRPGSTFEQVFSPLERRHAQTRRDAAADATNSSLAGSRTEHLAGRWAAKEAFIKAWSQAIYGKPPVIEPDLVNFAEIEVLPDRWGRVALQLKGEVAAKLQESIDVELALSISHDGDYATAQCLLRYQR
fasA activity (radiochemical assay at 37 C for 15 minutes on partially purified E. coli extracts): only when the fasA cosmid (FA) and the pSU19/ppt1 (P) construct were both present was there any measurable fasA activity
